This is an account of results in patent publication CN104862283A (UNIV JINAN, dated 2015).

In the assay the target is T1, 人肌红蛋白(Human Myoglobin) (human, UniProt P02144 2-154).
T1 construct: mature; Native protein, bought; also called 人肌红蛋白标准抗原; ABCam ab77876
T1 sequence (looked up): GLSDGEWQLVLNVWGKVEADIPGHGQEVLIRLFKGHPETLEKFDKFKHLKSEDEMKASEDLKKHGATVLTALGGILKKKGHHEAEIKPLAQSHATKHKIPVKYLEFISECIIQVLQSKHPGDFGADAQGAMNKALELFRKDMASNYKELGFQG
The experiment in a line: indirect ELISA, human myoglobin coated at 300 ng/ml, purified antibody in two-fold dilutions from 1:10 000.

B1: 鼠源抗人肌红蛋白单克隆抗体3M4 (antibody, V domains shown)
VH: VKLQESGGGLVQPGGSMKLSCVASGFNFSSYWMSWVRQSPEKGLEWVAEIRLKSDNYATHYAESVKGKFTISRDDSKSSLYLQMNNLRTEDTGIYFCADHGLTGHWGQGTTVTVSS
VL: LTQSPAIMSASPGEKVTLTCSASSSVSSSYLYWYQQKPGSSPKIWIYSTSNLAFGVPDRFSGSGSGTSYSLTISTMEAEDAASYFCHQWSSYPFTFGAGTKLE
Turning to B1, the 效价 (titer, antibody dilution at OD450 about 1.0) (dilution fold) was greater than 1e+06.

B2: 鼠源抗人肌红蛋白单克隆抗体5M7 (antibody)
chain 1: VQLQESGAELARPGASVKLSCKASGYTFTIYWMQWVKQRPGQGLEWIGSIYPGDGDTRYNQKFKGKATFTADKSSSTAYMQLISLASEDSAVYYCATGLYYGYDEGHWYFDVWGQGTTV
chain 2: DIVMSQSPASLAVSLGQRATISYRASKSVSTSGYSYMHWNQQKPGQPPRLLIYLVSNLESGVPARFSGSGSGTDFTLNIHPVEEEDAATYYCQHIR
In the case of B2, the “效价 (titer, antibody dilution at OD450 about 1.0)” value is no less than 1e+06 dilution fold.
